Substrate: [H][C@]12C[C@]([H])(OO1)[C@H](C/C=C\CCCC(=O)O)[C@H]2/C=C/[C@@H](O)CCCCC
Assay: purified protein
Conditions: PGD2 synthase reaction; 2 mM GSH fixed (saturating); PGH2 0.08-40 μM

Protein	Km	kcat	kcat/Km
rCsGST-μ1 (Clonorchis sinensis) (protein) MAPVLGYWKIRGLAQPIRLLLEYVGDSYEEHSYGRCDGEKWQNDKHNLGLELPNLPYYKDGNFSLTQSLAILRYIADKHNMIGNTPVERAKISMIEGGLVDLRAGVSRIAYQETFVCIVSTFCLSHTSQEQLKVPYLQQLPSTLRMWSQFLGNNSYLHGSTPTHLDFMFYEALDVIRYLDPTSVEAFPNLMQFIHRIEALPNIKAFMESDRFIKWPLNGWSAYFGGGDAPPK	4.9 µM	12.5 s⁻¹	2.6e+06 M⁻¹ s⁻¹
rCsGST-σ1 (Clonorchis sinensis) (protein) MADEHYTLFYFQFRGRAEAIRMILHANGVHFKDERFTMNEWPERRNQIPGSRVPLLQVKKNKTHEVANYVESMAIARMLAKRFHMMGDSEEEYYRVERMIGQCADLDKEFYTAFFAAADQKEEMLKKSMREAVPKMLDLISKSISESGGKFAAGDKVTLGDICLLTSMDHVRKHDPEFLGKHYPKLLVLEQEVLKAKPKLAEYIRTRPETPL	92.1 µM	451 s⁻¹	4.9e+06 M⁻¹ s⁻¹
rCsPGDS1 (Clonorchis sinensis) (protein) MSQYKLTYFNLRGRAEPIRMVLIISGTPFEDCRIEVSDWPSKKSTIPGGKLPILEVTSPCGKKTLMTESMATARYLAKQHNLMGATDEDYYKIEKTIGECGDLHDLVYKIARAPDAEKPKLIEELKKLENAPRLLNLMSETLKSNPSGFVAGEKVSLGDIALLCTLDQFESVYPGFLKENYPIFANHREHIMELQPKLAEHIKTRPTTIV	21.0 µM	90.6 s⁻¹	4.3e+06 M⁻¹ s⁻¹
rCsGST-σ3 (Clonorchis sinensis) (protein) MSGEKYKLYYFPFRARGEVIRMVLHAAGVPFDDERIPMDDWPKRKSEIPGGRMPVLQVIDPDKPDTPKNFVEGMAIARMLAKRFDLMDDTEEGYYNTERMIGECEDVFKEFRSVFLSPADKKEELLKEAMETSIPKQLDLISKSLSESAGKFVAGCKVTLGDLCLLACLDHVDKSDPEFLKDKYPKLLEWREEVLKEKPKLADYIKSRPDTPF	30.2 µM	90.7 s⁻¹	3e+06 M⁻¹ s⁻¹
